The target of the assay is T1, integrin α4β1 (human, UniProt P13612 34-1032; P05556 21-798).
T1 construct: whole, on cells; Present on human PBMNC isolated from blood and on HUVEC; also called α4β1 integrin; CD49d (α4β1 integrin)
The assay is described as follows: capture of PBMNC on immobilised H2R5 against blocking antibody and heparin-only control.

Data on one molecule can be found in patent US20260097149A1 (RESEARCH FOUNDATION FOR THE STATE UNIVERSITY OF NEW YORK, published 2026).

T1 sequence (P13612 34-1032, chain 1 of 2): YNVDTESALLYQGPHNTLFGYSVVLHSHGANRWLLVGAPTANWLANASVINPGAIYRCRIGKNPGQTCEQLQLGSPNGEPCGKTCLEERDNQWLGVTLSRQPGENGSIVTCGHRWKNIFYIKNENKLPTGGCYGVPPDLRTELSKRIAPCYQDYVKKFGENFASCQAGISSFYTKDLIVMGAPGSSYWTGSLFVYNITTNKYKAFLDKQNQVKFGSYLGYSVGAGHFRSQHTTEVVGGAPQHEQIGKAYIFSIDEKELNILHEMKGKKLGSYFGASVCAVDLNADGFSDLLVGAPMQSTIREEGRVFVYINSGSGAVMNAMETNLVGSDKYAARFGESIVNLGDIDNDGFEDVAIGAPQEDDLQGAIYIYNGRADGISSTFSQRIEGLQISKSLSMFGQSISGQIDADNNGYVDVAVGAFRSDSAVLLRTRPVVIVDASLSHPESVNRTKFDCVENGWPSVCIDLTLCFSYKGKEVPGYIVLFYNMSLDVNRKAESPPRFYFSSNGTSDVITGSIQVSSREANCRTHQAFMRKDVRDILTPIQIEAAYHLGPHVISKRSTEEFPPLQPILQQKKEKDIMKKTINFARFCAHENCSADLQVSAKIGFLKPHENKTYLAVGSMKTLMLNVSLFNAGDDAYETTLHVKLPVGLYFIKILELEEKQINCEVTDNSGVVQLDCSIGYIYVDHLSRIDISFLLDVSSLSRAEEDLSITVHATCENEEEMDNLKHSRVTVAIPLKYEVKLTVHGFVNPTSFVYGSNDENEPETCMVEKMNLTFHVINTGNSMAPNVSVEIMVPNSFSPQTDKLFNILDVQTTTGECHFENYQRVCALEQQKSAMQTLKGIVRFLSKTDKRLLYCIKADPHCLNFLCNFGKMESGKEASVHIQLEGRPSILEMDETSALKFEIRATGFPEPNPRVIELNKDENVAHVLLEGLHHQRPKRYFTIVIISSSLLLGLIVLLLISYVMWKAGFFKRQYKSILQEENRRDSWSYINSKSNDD
T1 sequence (P05556 21-798, chain 2 of 2): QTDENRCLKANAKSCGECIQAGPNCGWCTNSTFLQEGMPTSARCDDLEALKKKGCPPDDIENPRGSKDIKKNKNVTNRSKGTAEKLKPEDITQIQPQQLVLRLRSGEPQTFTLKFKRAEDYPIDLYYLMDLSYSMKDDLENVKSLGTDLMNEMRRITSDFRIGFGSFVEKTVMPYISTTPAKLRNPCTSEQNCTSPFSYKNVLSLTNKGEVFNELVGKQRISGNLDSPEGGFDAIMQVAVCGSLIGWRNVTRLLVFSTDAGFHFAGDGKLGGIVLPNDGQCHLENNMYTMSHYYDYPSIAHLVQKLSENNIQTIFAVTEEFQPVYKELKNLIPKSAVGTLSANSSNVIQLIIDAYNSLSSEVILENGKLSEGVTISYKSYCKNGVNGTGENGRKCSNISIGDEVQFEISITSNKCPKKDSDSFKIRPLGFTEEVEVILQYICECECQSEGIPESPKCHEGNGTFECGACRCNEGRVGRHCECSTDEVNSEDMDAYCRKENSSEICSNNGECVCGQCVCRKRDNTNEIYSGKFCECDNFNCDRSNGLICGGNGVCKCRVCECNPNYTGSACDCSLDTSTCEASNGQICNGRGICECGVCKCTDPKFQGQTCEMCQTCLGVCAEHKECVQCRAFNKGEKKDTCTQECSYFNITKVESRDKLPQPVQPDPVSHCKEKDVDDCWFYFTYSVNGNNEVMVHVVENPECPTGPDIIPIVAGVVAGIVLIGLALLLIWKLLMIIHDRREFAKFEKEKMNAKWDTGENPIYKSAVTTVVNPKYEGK

B1: H2R5 fusion protein, H2-(GGGS-…)5 (designed binder)
chain: MGSSHHHHHHSSGLVPRGSHMASMTGGQQMGRGSAIPAPTDLKFTQGTPTSLSAQWTPPNVQLTGYRVRVTPKEKTGPMKEINLAPDSSSVVVSGLMVATKYEVSVYALKDTLTSRPAQGVVTTLENVSPPRRARVTDATETTITISWRTKTETITGFQVDAVPANGQTPIQRTIKPDVRSYTITGLQPGTDYKIYLYTLNDNARSSPVVIDASTAIDAPSNLRFLATTPNSLLVSWQPPRARITGYIIKYEKPGSPPREVVPRPRPGVTEATITGLEPGTEYTIYVIALKNNQKSEPLIGHKLGGGGSHIPREDVDYHGGGGSHIPREDVDYHGGGGSHIPREDVDYHGGGGSHIPREDVDYHGGGGSHIPREDVDYHLEHHHHHH
notes: no residue limits are stated; also called fusion peptide (H2R5); His tagged fusion protein
B1: the binding result was “binds”.
